Source: the supplement of paper PMC10567573

B1: ZNF8 (parent)
chain: VHVIGVEEPSVGASMLFDIREST
B2: MAGEA6 (parent)
chain: KISGGPRISYPLLHEWALREGEE

Variants of: B1
Experiment: protein stability index of a GFP-peptide fusion (GPS, HEK-293T) (PSI 1-6); higher = more stable
Settings: c terminus: native
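Further: lentivirally expressed fusions sorted by FACS into six bins by GFP to DsRed ratio, PSI derived from sequencing read proportions per bin multiplied by bin number.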

Point of comparison: S14E, protein stability index 2.28. Against it:
- S10G — lower, 2.1
- S10M — lower, 1.52
- S10P — lower, 2.03
- S10N — lower, 2.23
- S10F — lower, 1.26
- S10K — lower, 1.99
- S10W — lower, 1.68
- S10L — lower, 1.84
- S10E — lower, 2.25
- S10C — lower, 1.85
- S10R — lower, 1.71
- S10A — higher, 2.58
- S10I — higher, 2.91
- S10D — higher, 2.48
- S10T — lower, 2.24
- S10Q — the same, 2.28
- S10Y — lower, 2.02
- S10H — lower, 2.1
- S10V — lower, 2.16
- V1T — higher, 3.92
- V1P — higher, 3.77
- V1H — higher, 3.78
- V1I — lower, 2
- V1Y — higher, 2.29
- V1E — higher, 4.18
- V1A — higher, 3.67
- V1L — lower, 1.79
- V1W — lower, 2.06
- V1G — higher, 3.85
- V1K — higher, 3.52
- V1R — higher, 2.82
- V1N — higher, 4.07
- V1M — higher, 2.29
- V1D — higher, 3.96
- V1S — higher, 3.97
- V1Q — higher, 3.88
- V1C — lower, 1.93
- V1F — lower, 1.82
- P9H — lower, 1.74
- P9V — lower, 1.44
- P9N — lower, 2.27
- P9D — higher, 2.53
- P9M — lower, 2.09
- P9G — higher, 2.31
- P9R — lower, 2.27
- P9C — lower, 1.87
- P9W — higher, 3.09
- P9A — higher, 2.65
- P9E — higher, 2.44
- P9T — lower, 2.12
- P9L — lower, 2.23
- P9S — lower, 1.73
- P9K — higher, 2.31
- P9I — higher, 2.47
- P9F — higher, 2.45
- P9Q — lower, 2.17
- P9Y — lower, 2.19
- H2N — higher, 2.95
- H2T — lower, 1.79
- H2F — lower, 1.97
- H2C — lower, 1.63
- H2I — higher, 2.56
- H2A — higher, 2.67
- H2M — lower, 1.43
- H2S — higher, 2.81
- H2G — higher, 3.35
- H2K — higher, 2.29
- H2P — higher, 3.59
- H2W — lower, 2.25
- H2Y — higher, 2.51
- H2E — higher, 3.35
- H2L — higher, 2.9
- H2R — lower, 2.09
- H2D — higher, 3.42
- H2V — lower, 1.83
- H2Q — lower, 2.27
- M15K — higher, 3.24
- M15C — higher, 2.49
- M15P — higher, 2.78
- M15T — higher, 2.3
- M15S — higher, 2.78
- M15D — higher, 2.93
- M15Q — higher, 2.75
- M15G — higher, 3.15
- M15F — lower, 1.62
- M15H — higher, 2.4
- M15I — higher, 2.59
- M15L — lower, 1.74
- M15W — higher, 2.34
- M15E — higher, 3.67
- M15R — higher, 2.47
- M15A — higher, 2.88
- M15N — higher, 2.75
- M15V — lower, 1.79
- G5P — higher, 2.36
- G5E — higher, 2.42
- G5I — higher, 2.51
- G5R — lower, 1.61
- G5M — higher, 2.84
- G5K — lower, 1.95
- G5W — higher, 2.37
- G5C — higher, 2.82
- G5N — lower, 2.18
- G5F — higher, 2.47
- G5L — higher, 3.04
- G5V — higher, 2.71
- G5D — higher, 3.11
- G5T — lower, 2.24
- G5H — lower, 1.6
- G5Y — higher, 2.35
- G5A — lower, 1.63
- G5Q — lower, 1.66
- G5S — lower, 1.56
- G12R — higher, 2.4
- G12Y — higher, 2.95
- G12P — lower, 2.16
- G12C — lower, 1.78
- G12D — higher, 2.87
- G12T — lower, 1.56
- G12N — higher, 2.29
- G12E — higher, 2.45
- G12F — lower, 2.1
- G12V — lower, 1.7
- G12Q — lower, 1.88
- G12M — lower, 1.71
- G12K — lower, 1.9
- G12L — lower, 1.52
- G12H — lower, 2.1
- G12S — lower, 2.19
- G12W — higher, 2.88
- G12I — lower, 1.78
- G12A — lower, 1.93
- S14I — higher, 3.13
- S14P — higher, 2.63
- S14W — higher, 3.13
- S14F — the same, 2.28
- S14Q — lower, 2.12
- S14H — lower, 1.95
- S14Y — higher, 2.78
- S14R — lower, 1.9
- S14T — lower, 2.26
- S14D — higher, 2.62
- S14G — lower, 1.92
- S14K — lower, 2
- S14C — lower, 1.54
- S14A — lower, 1.86
- S14N — higher, 2.4
- S14M — higher, 2.31
- S14V — higher, 3.14
- S14L — higher, 2.31
- E8F — higher, 2.49
- E8S — lower, 2.09
- E8P — lower, 1.75
- E8Y — higher, 2.87
- E8T — lower, 1.73
- E8D — lower, 1.69
- E8Q — lower, 1.78
- E8N — lower, 1.48
- E8I — higher, 4.45
- E8M — lower, 1.95
- E8W — higher, 4.73
- E8H — lower, 2.08
- E8K — lower, 2.11
- E8R — lower, 1.89
- E8C — higher, 3.48
- E8L — higher, 2.75
- E8V — higher, 2.45
- E8A — lower, 2.25
- E8G — lower, 2.18
- A13N — higher, 2.31
- A13E — higher, 2.61
- A13G — higher, 2.74
- A13H — lower, 1.95
- A13F — higher, 2.8
- A13M — lower, 1.57
- A13K — lower, 2.2
- A13L — higher, 2.41
- A13V — lower, 1.87
- A13Y — lower, 1.66
- A13W — higher, 3.12
- A13R — lower, 1.97
- A13Q — lower, 1.98
- A13S — lower, 1.96
- A13D — higher, 2.69
- A13P — higher, 2.51
- A13C — lower, 1.34
- A13T — lower, 1.93
- A13I — higher, 2.78
- I4S — higher, 3.63
- I4F — lower, 2.13
- I4C — higher, 2.59
- I4W — lower, 1.94
- I4Y — lower, 2.16
- I4Q — higher, 3.47
- I4D — higher, 3.97
- I4K — higher, 3.18
- I4P — higher, 3.88
- I4A — higher, 3.55
- I4N — higher, 3.43
- I4T — higher, 3.3
- I4E — higher, 3.73
- I4V — higher, 2.54
- I4R — higher, 2.9
- I4L — higher, 2.51
- I4M — higher, 2.77
- I4G — higher, 3.34
- I4H — higher, 2.62
- V6I — lower, 1.75
- V6E — higher, 2.99
- V6S — higher, 2.75
- V6F — lower, 2.27
- V6C — lower, 1.96
- V6Y — lower, 1.9
- V6H — higher, 2.46
- V6T — higher, 2.33
- V6Q — higher, 2.64
- V6P — lower, 1.82
- V6W — lower, 1.76
- V6A — higher, 2.52
- V6G — higher, 2.54
- V6M — lower, 1.76
- V6L — lower, 2.25
- V6D — higher, 3.75
- V6K — higher, 2.61
- V6R — higher, 2.35
- V6N — higher, 3.61
- E7I — lower, 1.7
- E7D — lower, 1.86
- E7Y — higher, 2.91
- E7W — higher, 3.4
- E7L — lower, 1.92
- E7K — lower, 1.72
- E7N — lower, 1.88
- E7A — lower, 1.69
- E7V — higher, 2.84
- E7G — lower, 1.94
- E7T — lower, 1.61
- E7R — lower, 1.33
- E7H — lower, 1.15
- E7C — lower, 1.81
- E7P — lower, 2.2
- E7S — lower, 1.94
- E7M — lower, 2.14
- E7F — higher, 3.54
- E7Q — lower, 1.55
- V11Y — lower, 1.92
- V11R — lower, 1.9
- V11C — lower, 1.91
- V11S — higher, 2.33
- V11T — lower, 2.24
- V11A — higher, 2.38
- V11E — higher, 2.87
- V11G — the same, 2.28
- V11P — higher, 2.65
- V11K — lower, 2.27
- V11W — lower, 1.44
- V11N — higher, 2.35
- V11H — higher, 2.42
- V11I — lower, 1.91
- V11L — lower, 1.85
- V11F — lower, 2.17
- V11M — lower, 1.82
- V11Q — lower, 2.1
- V11D — higher, 2.69
- V3D — higher, 3.95
- V3S — higher, 3.42
- V3M — higher, 2.84
- V3T — higher, 3.08
- V3G — higher, 3.42
- V3A — higher, 3.18
- V3I — lower, 1.84
- V3W — lower, 1.47
- V3Q — higher, 3.87
- V3N — higher, 3.89
- V3E — higher, 4.1
- V3Y — lower, 1.54
- V3L — lower, 1.88
- V3P — higher, 3.49
- V3C — higher, 2.74
- V3R — higher, 2.81
- V3F — lower, 1.94
- V3K — higher, 3.36
- V3H — higher, 3.02

Variants of: B2
Experiment: as above
Settings: c terminus: native

Point of comparison: R19T, protein stability index 3.74. Against it:
- P11Q — lower, 2.63
- R19N — lower, 1.43
- R19C — lower, 2.87
- R19P — lower, 2.18
- E20P — lower, 2.36
- E20K — the same, 3.74
- L12A — higher, 4.05
- L12G — higher, 5.59
- L12F — higher, 3.78
- G4W — lower, 2.78
- Y10Q — higher, 3.78
- E22Q — lower, 3.01
- E22L — lower, 2.44
- E22D — lower, 3.35
- E22I — lower, 2.37
- E22H — lower, 2.49
- E22A — lower, 2.4
- E23K — lower, 2.88
- E23M — lower, 2.17
- E23T — lower, 2.25
- E23C — lower, 1.64
- E23I — lower, 1.74
- E23L — lower, 2.27
- E23R — lower, 1.88
- E23Q — lower, 2.48
- I2P — lower, 3.29
- K1F — lower, 1.67
- K1W — lower, 2.14
- E15N — lower, 2.31
- G5C — lower, 3.47
- G5D — lower, 2.6
- G5F — lower, 2.74
- G5A — lower, 2.31
- R7I — higher, 4.03
- R7G — lower, 2.84
- P6R — lower, 3.64
- P6C — lower, 2.05
- P6N — lower, 3.51
- P6T — lower, 2.8
- P6K — lower, 1.55
- L18K — lower, 2.72
- L18W — lower, 2.78
- A17P — lower, 1.02
- S3W — lower, 2.02
- S9F — lower, 1.61
- L13Y — lower, 1.19
- W16N — lower, 2.54
- W16L — higher, 4.59
- W16F — lower, 2.74
